{"source": "patent US6849598B1", "about": "“Therapeutic compositions comprising bactericidal/permeability-increasing (BPI) protein products” (XOMA, priority 1995, dated 2005)", "molecules": {"B1": {"name": "rBPI21: expression product of DNA encoding amino acid 1 to approximately 193 or 199 of BPI holoprotein, cysteine 132 substituted with alanine (protein, UniProt P17213 32-224, looked up, variant C132A)", "chain": "VNPGVVVRISQKGLDYASQQGTAALQKELKRIKIPDYSDSFKIKHLGKGHYSFYSMDIREFQLPSSQISMVPNVGLKFSISNANIKISGKWKAQKRFLKMSGNFDLSIEGMSISADLKLGSNPTSGKPTITASSCSSHINSVHVHISKSKVGWLIQLFHKKIESALRNKMNSQVCEKVTNSVSSELQPYFQTL"}}, "key": {"A. baumannii [1]": {"test_system": "A. baumannii", "assay": "Bactericidal activity in serum, broth or water, CFU after 4 hours (Example 2)", "type": "cell-based", "method": "The bactericidal activity of therapeutic compositions comprising BPI protein product and either poloxamer 333 (PLURONIC P103, BASF Wyandotte Corp.) or heat-treated PLURONIC P103, was evaluated against the clinical isolates of Example 1. Therapeutic compositions comprising 160 μg/mL rBPI21 and varying concentrations of either PLURONIC P103 or heat-treated PLURONIC P103 were formulated by diluting a 2 mg/mL solution of “non-formulated” rBPI21 (in buffer comprising 5 mM sodium citrate and 150 mM NaCl, without any surfactants) with the appropriate amounts of PLURONIC P103 or heat-treated PLURONIC P103 solutions. A “formulated” rBPI21 solution containing 2 mg/mL rBPI21, 0.2% poloxamer 188 (PLURONIC F68, BASF Wyandotte Corp.), 0.002% TWEEN 80 (polysorbate 80, ICI Americas, Wilmington, Del.), 5 mM sodium citrate and 150 mM NaCl was also tested for comparison. Poloxamer control solutions containing only 0.1% PLURONIC P103 or 0.1% heat-treated PLURONIC P103, and no rBPI21, were also prepared.\nA 0.1% (w/v) solution of PLURONIC P103 was prepared by stirring the PLURONIC P103 in deionized water until dissolved and filtering the solution through a […] cellulose acetate polystyrene filter unit (Corning Inc., Corning, N.Y.). […]\nThe bacteria to be used in the assays were grown on tryptic soy agar (TSA) plates (Remel, Catalog #01-920, Lenexa, Kans.) for 24 hours. […] A bacterial stock emulsion was prepared by emulsifying bacterial colonies in sterile deionized water to approximately 2.2 to 3.8×10^8 colony forming units (CFU)/mL as measured by a Microscan® Turbidity Meter (Dade Microscan, West Sacramento, Calif.), and diluting further by 1:10 in water. […] Following incubation, the remaining colony forming units (CFU) in each well were counted at a 10^−2 dilution by plating 10 μL from each well onto TSA plates. The TSA plates were incubated at 37° C. for 24 hours and the number of bacterial colonies were visually counted. […]"}, "A. baumannii [2]": {"test_system": "A. baumannii", "assay": "Bactericidal activity with heat-treated PLURONIC P104 in serial 2-fold dilutions of serum", "type": "cell-based", "conditions": "formulated BPI protein product diluted with heat-treated PLURONIC P104 solution", "method": "Additional experiments were performed to test therapeutic compositions, prepared by diluting a variety of formulated BPI protein products with heat-treated PLURONIC P104 solution, and tested against A. baumannii in serial 2-fold dilutions of serum."}}, "data": [{"molecule": "B1", "values": [{"measurement": "colony forming units after 4 hours", "setting": "A. baumannii [1]; Broth, bacteria only >5000", "value": ">5000 100's of CFUs"}, {"measurement": "colony forming units after 4 hours", "setting": "A. baumannii [1]; Serum, bacteria only >2000", "value": ">2000 100's of CFUs"}, {"measurement": "colony forming units after 4 hours", "setting": "A. baumannii [1]; Water, bacteria only >2000", "value": "519 100's of CFUs"}, {"measurement": "serum concentrations at which bactericidal activity was observed", "setting": "A. baumannii [2]", "value": "≤ 6.25", "unit": "%"}]}]}
